According to article PMC4366684 (The FEBS journal, 2013):
Substitutions are numbered along the chain they refer to. Names may count otherwise.

B1: low-specificity Escherichia coli L-threonine aldolase (eTA) (Escherichia coli K-12) (protein)
chain: MIDLRSDTVTRPSRAMLEAMMAAPVGDDVYGDDPTVNALQDYAAELSGKEAAIFLPTGTQANLVALLSHCERGEEYIVGQAAHNYLFEAGGAAVLGSIQPQPIDAAADGTLPLDKVAMKIKPDDIHFARTKLLSLENTHNGKVLPREYLKEAWEFTRERNLALHVDGARIFNAVVAYGCELKEITQYCDSFTICLSKGLGTPVGSLLVGNRDYIKRAIRWRKMTGGGMRQSGILAAAGIYALKNNVARLQEDHDNAAWMAEQLREAGADVMRQDTNMLFVRVGEENAAALGEYMKARNVLINASPIVRLVTHLDVSREQLAEVAAHWRAFLAR
B2: low-specificity Escherichia coli L-threonine aldolase (eTA) (Escherichia coli K-12; H126N) (protein)
chain: B1 chain with H126N
B3: low-specificity Escherichia coli L-threonine aldolase (eTA) (Escherichia coli K-12; H126F) (protein)
chain: B1 chain with H126F
B4: low-specificity Escherichia coli L-threonine aldolase (eTA) (Escherichia coli K-12; F87D) (protein)
chain: B1 chain with F87D
B5: low-specificity Escherichia coli L-threonine aldolase (eTA) (Escherichia coli K-12; K222A) (protein)
chain: B1 chain with K222A
B6: low-specificity Escherichia coli L-threonine aldolase (eTA) (Escherichia coli K-12; F87A) (protein)
chain: B1 chain with F87A

What was measured:
[1] = target: T1, low-specificity Escherichia coli L-threonine aldolase (eTA) (Escherichia coli, UniProt P75823); test: X-ray crystal structure, […] Å; type: binding; conditions: covalent, internal aldimine with Lys197; 1:1 per subunit
[2] = target: T1, low-specificity Escherichia coli L-threonine aldolase (eTA); test: X-ray crystal structure, […] Å, co-crystallised with L-serine; type: binding; conditions: covalent, external aldimine with PLP; partial occupancy
purified protein [3] = substrate: C[C@@H](O)[C@H](N)C(=O)O; test: purified protein; type: biochemical, Escherichia coli; conditions: 20 mM potassium phosphate, pH 7.0, 30 °C, retro-aldol cleavage
purified protein [4] = substrate: C[C@H](O)[C@H](N)C(=O)O; test: purified protein; type: biochemical, Escherichia coli; conditions: 20 mM potassium phosphate, pH 7.0, 30 °C, retro-aldol cleavage

Molecule | X-ray crystal structure, 2.2 Å [1] | X-ray crystal structure, 2.2 Å, co-crystallised with L-serine [2] | Km (purified protein [3]) | kcat (purified protein [3]) | kcat/Km (purified protein [3]) | Km (purified protein [4]) | kcat (purified protein [4]) | kcat/Km (purified protein [4])
Cc1ncc(COP(=O)(O)O)c(C=O)c1O [PLP] | PLP bound at their interface, forming a Schiff base (internal aldimine) with the conserved Lys197 | – | – | – | – | – | – | –
NCC(=O)O [glycine] | – | external aldimine with glycine (in which the C4’ is bound to the amino group | – | – | – | – | – | –
B1 | – | – | 19.4 mM | 112 min⁻¹ | 96.7 M⁻¹ s⁻¹ | 0.24 mM | 213 min⁻¹ | 14800 M⁻¹ s⁻¹
B2 | – | – | – | – | – | 0.96 mM | 469 min⁻¹ | 8130 M⁻¹ s⁻¹
B3 | – | – | – | – | – | 0.2 mM | 541 min⁻¹ | 45100 M⁻¹ s⁻¹
B4 | – | – | – | – | – | 0.41 mM | 117 min⁻¹ | 4750 M⁻¹ s⁻¹
B5 | – | – | – | – | – | 1.2 mM | 80 min⁻¹ | 1120 M⁻¹ s⁻¹
B6 | – | – | – | – | – | 0.31 mM | 160 min⁻¹ | 8600 M⁻¹ s⁻¹
